Test results from patent US20210388081A1 (Memorial Sloan Kettering, published 2021).

Legend:
[1] = molecular target: T1, FcRL3, overexpressed on 3T3 cells (UniProt Q96P31 18-734, limits assumed); assay: phage clone on 3T3-FcRL3 cells
T1 construct: whole, on cells
T1 sequence (looked up): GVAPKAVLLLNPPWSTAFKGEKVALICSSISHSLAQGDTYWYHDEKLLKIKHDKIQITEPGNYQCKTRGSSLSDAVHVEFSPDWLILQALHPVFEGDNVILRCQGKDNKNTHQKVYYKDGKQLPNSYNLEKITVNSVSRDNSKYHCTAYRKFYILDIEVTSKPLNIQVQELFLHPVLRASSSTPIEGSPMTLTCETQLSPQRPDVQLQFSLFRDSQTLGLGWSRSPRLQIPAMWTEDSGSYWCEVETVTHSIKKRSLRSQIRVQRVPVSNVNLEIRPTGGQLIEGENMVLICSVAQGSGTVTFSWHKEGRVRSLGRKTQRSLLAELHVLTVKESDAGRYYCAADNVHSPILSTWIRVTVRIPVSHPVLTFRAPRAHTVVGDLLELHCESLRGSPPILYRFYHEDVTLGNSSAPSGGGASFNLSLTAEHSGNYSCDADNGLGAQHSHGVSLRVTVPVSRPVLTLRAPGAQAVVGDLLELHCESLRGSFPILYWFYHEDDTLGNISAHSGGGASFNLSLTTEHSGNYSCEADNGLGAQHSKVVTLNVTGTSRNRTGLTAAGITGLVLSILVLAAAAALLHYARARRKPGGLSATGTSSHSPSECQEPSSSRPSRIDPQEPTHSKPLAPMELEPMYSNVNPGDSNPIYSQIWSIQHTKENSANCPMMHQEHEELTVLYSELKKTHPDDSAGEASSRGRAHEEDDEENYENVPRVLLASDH

[2] = molecular target: T2, FcRL1, overexpressed on 3T3 cells (UniProt Q96LA6 17-429, limits assumed); assay: phage clone on 3T3-FcRL1 cells
T2 construct: whole, on cells
T2 sequence (looked up): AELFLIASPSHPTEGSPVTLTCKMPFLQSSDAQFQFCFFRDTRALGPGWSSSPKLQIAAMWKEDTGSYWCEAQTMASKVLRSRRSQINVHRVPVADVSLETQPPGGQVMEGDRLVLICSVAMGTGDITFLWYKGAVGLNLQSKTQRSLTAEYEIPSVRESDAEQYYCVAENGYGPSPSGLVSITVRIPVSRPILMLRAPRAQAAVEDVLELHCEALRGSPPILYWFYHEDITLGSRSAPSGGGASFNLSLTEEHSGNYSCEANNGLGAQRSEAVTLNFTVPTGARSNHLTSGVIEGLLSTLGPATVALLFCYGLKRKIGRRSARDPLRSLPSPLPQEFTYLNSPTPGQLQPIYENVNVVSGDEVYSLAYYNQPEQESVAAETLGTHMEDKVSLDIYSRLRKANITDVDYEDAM

Row | Binder | binding result [1] | binding result [2]
1 | ET200-098 (scFv, screened as phage clone; entry is VL-linker-VH-His tag-HA tag) scFv: QPVLTQPPSVSKGLRQTATLTCTGNSNNVGNLGVAWLQQHQGHPPKLLSYRNNNRPSGISERLSASRSGNTASLTITGLQPEDEADYYCSAWDSSLSAWVFGGGTKLTVLGSRGGGGSGGGGSGGGGSLEMAEVQLVESGGVVVQPGGSLRLSCAASGFTFDDYAMHWVRQAPGKGLEWVSLINWDGGSTYYADSVKGRFTISRDNSKNSLYLQMNSLRAEDTALYYCAKGMGLRAFDYWGQGTLVTVSSTSGQAGQHHHHHHGAYPYDVPDYAS | no binding | no binding
2 | ET200-045 (scFv, screened as phage clone; entry is VL-linker-VH-His tag-HA tag) scFv: QPVLTQPPSVSVAPGKTATITCGGNNIGSESVHWYHQKPGQAPVLVIYDDAGRPSGIPERFTGSNSGNTATLTISRVEAGDEADYYCQVWDRNSAQFVFGPGTKVTVLGSRGGGGSGGGGSGGGGSLEMAEVQLVQSGAEVKKPGASVKVSCKASGYTFTSYGISWVRQAPGQGLEWMGWISAYNGNTNYAQKLQGRVTMTTDTSTSTAYMELRSLRSDDTAVYYCARGVHLDWWGQGTLVTVSSTSGQAGQHHHHHHGAYPYDVPDYAS | no binding | no binding
3 | ET200-006 (scFv, screened as phage clone; entry is VL-linker-VH-His tag-HA tag) scFv: SYVLTQPPSVSVAPGKTARITCGGNNIGSKSVHWYQQKPGQAPVVVIHYDSDRPSGIPERFSGSNSGNTATLTISRVEAGDEADYYCQVWDSSSDHPYVFGTGTKVTVLGSRGGGGSGGGGSGGGGSLEMAEVQLVQSGAEVKKPGASVKVSCKASGYTFTTYGISWVRQAPGQGLEWMGWINTYNGHTNYAQKLQGRATMTADTSTNTAYMELRSLRSDDTAVYYCARVIYGSGDYWGQGTLVTVSSTSGQAGQHHHHHHGAYPYDVPDYAS | no binding | no binding
4 | ET200-099 (scFv, screened as phage clone; entry is VL-linker-VH-His tag-HA tag) scFv: QSVLTQPPSASGTPGQRVTISCSGSSSNIGSNTVNWYQQLPGTAPKLLIYSNDQRPSGVPDRFSGSKSGTSASLAISGLQSEDEADYYCASWDDSLNGRYVFGTGTKVTVLGSRGGGGSGGGGSGGGGSLEMAQVQLVQSGAEVRKPGASVKVSCKTSGYTFSWYAIHWVRQAPGQRLEWMGWINAGNGNTKYSQKFQGRVSLTRDTSASTAYMELSSLRSDDTAVYYCARPDNYGSGGDVFDIWGQGTMVTVSSTSGQAGQHHHHHHGAYPYDVPDYAS | no binding | no binding
5 | ET200-097 (scFv, screened as phage clone; entry is VL-linker-VH-His tag-HA tag) scFv: LPVLTQPPSVSVSPGQTAIITCSGDKLGEKYVSWYQQKPGQSPVLVIDQDTRRPSGIPERFSGSNSGTTATLTISGTQAMDEADYYCQAWDRGVVFGGGTKLTVLGSRGGGGSGGGGSGGGGSLEMAEVQLVESGGDLVQPGRSLRLSCAASGFTFNDYAMHWVRQAPGKGLEWVSGISWSGNNIGYADSVKGRFTISRDNAKNSLYLQMNSLRAEDTALYYCAKDSIRYGITWGGFDYWGQGTLVTVSSTSGQAGQHHHHHHGAYPYDVPDYAS | no binding | no binding
6 | ET200-101 (scFv, screened as phage clone; entry is VL-linker-VH-His tag-HA tag) scFv: QAVLTQPPSASGAPGQRVTVSCSGSNSNIGSNYVNWYQQFPGTAPKLLMYSSSQRPSGVPDRFSGSKSGTSASLAISGLHSEDEADYYCATWDDSLNAWVFGGGTKLTVLGSRGGGGSGGGGSGGGGSLEMAEVQLVQSGAEVRKPGASVKVSCKTSGYTFTWYAIHWVRQAPGQRLEWMGWINAGSGNTKYSQKFQGRVTLTRDTSASTAYMELSSLRSDDTAVYYCARPNNYGSGGDVFDIWGQGTMVTVSSTSGQAGQHHHHHHGAYPYDVPDYAS | no binding | no binding
7 | ET200-079 (scFv, screened as phage clone; entry is VL-linker-VH-His tag-HA tag) scFv: SYELTQPPSASGTPGQRVTISCSGSSSNIGSNYVYWYQQLPGTAPKLFIYRNNQRPSGVPDRFSGSKSGTSASLAISGLRSEDEADYYCAAWDDSLSGYLFGTGTKVTVLGSRGGGGSGGGGSGGGGSLEMAEVQLVESGGGLVQPGRSLRLSCAASGFTFDDYAMHWVRQAPGKGLEWVSGISWNSGSIGYADSVKGRFTISRDNAKNSLYLQMNSLRAEDTALYYCANGDSNYYYGMDVWGQGTTVTVSSTSGQAGQHHHHHHGAYPYDVPDYAS | no binding | no binding
8 | ET200-069 (scFv, screened as phage clone; entry is VL-linker-VH-His tag-HA tag; also called ET200-69) scFv: QSVVTQPPSASGTPGQRVTISCSGSSSNIGSNYVYWYQQLPGTAPKLLIYSNNQRPSGVPDRFSGSKSGTSASLAISGLRSEDEADYYCAAWDDSLSGYVFGTGTKLTVLGSRGGGGSGGGGSGGGGSLEMAQVQLQQWGAGLLKPSETLSLTCAVYGGSFSGYYWSWIRQPPGKGLEWIGEINHSGSTNYNPSLKSRVTISVDTSKNQFSLKLSSVTAADTAVYYCARLYEGGYHGWGSWLSSDSWGQGTLVTVSSTSGQAGQHHHHHHGAYPYDVPDYAS | no binding | no binding
9 | ET200-044 (scFv, screened as phage clone; entry is VL-linker-VH-His tag-HA tag) scFv: QSVLTQPPSVSVSPGQTATIACSGHKLGDKYASWYQQKSGQSPVLIIYQDNKRPSGIPERFSGSNSGNTATLTISGTQALDEADYYCQAWDSSTYVAFGGGTKLTVLGSRGGGGSGGGGSGGGGSLEMAQVQLQESGPGLVKPSETLSLTCVVSGGSISSSNWWSWVRQPPGKGLEWIGEIYHSGSPNYNPSLKSRVTISVDKSKNQFSLKLSSVTAADTAVYYCARMTTHTFGYDAWGQGTLVTVSSTSGQAGQHHHHHHGAYPYDVPDYAS | no binding | no binding
10 | ET200-042 (scFv, screened as phage clone; entry is VL-linker-VH-His tag-HA tag) scFv: QSVVTQPPSVSGAPGQTVTISCTGGSSNIGTGYFVNWYQQVPGKAPKLLILGNNNRPSGVPDRLSGSTSGTSASLAITGLQAEDEGTYYCQSYDSSLSGYVFGTGTKVTVLGSRGGGGSGGGGSGGGGSLEMAQVQLQQSGPGLVKPSQTLSLTCGISGDSVSTNSVAWHWIRQSPSRGLEWLGRTYYRSKWSNDYGVSVKSRITIIPDTSKNQFSLQLNSVTPEDTAVYYCARSSSWYQIFDYWGQGTLVTVSSTSGQAGQHHHHHHGAYPYDVPDYAS | no binding | no binding
11 | ET200-081 (scFv, screened as phage clone; entry is VL-linker-VH-His tag-HA tag) scFv: QSALTQPASVSGSPGQSITISCTGTSSDIGGYNYVSWYQQHPGKAPKLMIYDVSNRPSGVSNRFSGSKSGNTASLTISGLQAEDEADYYCISYTRTWNPYVFGSGTKVTVLGSRGGGGSGGGGSGGGGSLEMAEVQLVQSGGGVVQPGGSLRLSCAASGFTFDDYAMHWVRQAPGKGLEWVSLISGDGGSTYYADSVKGRFTISRDNSKNSLYLQMNSLRTEDTALYYCAKDRAAAGYYYYGMDVWGQGTTVTVSSTSGQAGQHHHHHHGAYPYDVPDYAS | no binding | no binding
12 | ET200-100 (scFv, screened as phage clone; entry is VL-linker-VH-His tag-HA tag) scFv: NFMLTQPHSVSESPGKTVTISCTRSSGSIASNFVQWYQQRPGSAPTPMIYEDNNRPPGVPDRFSASVDSSSNSASLTISGLKTEDEADYYCQSYDTSNVVFGGGTKLTVLGSRGGGGSGGGGSGGGGSLEMAEVQLVESGGGLVQPGGSLRLSCAASGFTFSSYEMNWVRQAPGKGLEWVSYISSSGSTIYYADSVKGRFTISRDNAKNSLYLQMNSLRAEDTAVYYCARWDYGMDVWGQGTTVTVSSTSGQAGQHHHHHHGAYPYDVPDYAS | no binding | no binding
13 | ET200-104 (scFv, screened as phage clone; entry is VL-linker-VH-His tag-HA tag) scFv: NFMLTQPHSVSESPGKTVTISCTRSSGSIASNYVQWYQQRPGSAPTTVIYEDNQRPSGVPDRFSGSIDSSSNSASLTISGLKTEDEADYYCQSYDSSNVVFGGGTKVTVLGSRGGGGSGGGGSGGGGSLEMAEVQLVESGGGLVQPGGSLRLSCAASGFTFSSYEMNWVRQAPGKGLEWVSYISSSGSTIYYADSVKGRFTISRDNAKNSLYLQMNSLRAEDTAVYYCARWDYGMDVWGQGTTVTVSSTSGQAGQHHHHHHGAYPYDVPDYAS | no binding | no binding
14 | ET200-003 (scFv, screened as phage clone; entry is VL-linker-VH-His tag-HA tag) scFv: QSVLTQPPSVSVSPGQTASISCSGNKLGTKYVYWYQKRPGQSPVLVMYEDNQRPSGIPERFSGSNSGNTATLTIRGTQTVDEADYYCQAWDSDTFVVFGGGTKVTVLGSRGGGGSGGGGSGGGGSLEMAEVQLVETGGGVVQPGRSLRLSCAASGFTFSSYGMHWVRQAPGKGLEWVAVISHDGSNKYYADSVKGRFTISRDNSKDTLYLQMNSLRGEDTAVYYCARSNQWSGYFSFDYWGQGTLVTVSSTSGQAGQHHHHHHGAYPYDVPDYAS | no binding | no binding
